{"source": "patent US20240189408A1", "about": "“COMPOSITIONS AND METHODS FOR REDUCING METHANE EMISSIONS IN RUMINANT POPULATIONS” (Arkea Bio Corp., priority 2022, published 2024)", "key": {"ovalbumin (OVA)": {"tested_on": "ovalbumin (OVA)", "test": "OVA-specific IgG ELISA of sera after IM or SQ vaccination", "type": "in vivo, dairy cows", "details": "one line per animal replicate", "protocol": "(§1) Bovine nucleic acid vaccination protocols (SQ and IM) were assessed in vivo in the dairy cows through the quantification of the adaptive immune response following inoculation with ovalbumin (OVA). Immune response was assessed by quantifying total IgG and OVA-specific IgG over a 28-day period after vaccination. Both SQ and IM vaccination provided a robust immune response, with IM vaccination providing a higher total immune response than SQ vaccination.\n(§2) Dairy cows were dried off for a period of eight days prior to vaccination. Each vaccine formulation was administered either by IM or SQ injection to three animals. In total, 15 animals were vaccinated with LNPs containing mRNA and 6 animals were vaccinated with empty LNPs. Intramuscular injections were delivered into the cow's right neck muscle by veterinary-trained staff using an 18-gauge 1-1.5″ needle. Subcutaneous injections were delivered into the cow's right shoulder by veterinary-trained staff using an 18-gauge 0.5-0.75″ needle. Total blood samples (˜20 mL) were collected by veterinary-trained staff. Samples were collected into 10 mL vacutainer tubes (2×10 mL) from the coccygeal vein (tail vein) by needle puncture. Harvested blood samples were then processed via ultracentrifugation for serum collection. Isolated serum samples were aliquoted, labeled and stored in cryogenic tubes at −20° C. until use.\nSera samples were thawed on ice and total IgG was quantified using NovateinBio's Bovine OVA sIgG Antibody ELISA Kit (Cat No. BG-BVN11731) following the manufacturer's recommended protocol. Each of the animals vaccinated with a construct show a demonstrable OVA-specific IgG response over the 28-day test period."}, "[1]": {"test": "LNP size and polydispersity by DLS (Malvern Panalytical)", "type": "physicochemical", "details": "mRNA LNPs, Example 6", "protocol": "(§3) To prepare lipid nanoparticles (LNPs), the mRNA stocks were thawed on ice. Nucleic acid concentrations were validated by absorbance at 260 nm using a NanoDrop. The mRNAs were then diluted to a final concentration of 0.35 mg/mL mRNA in Precision Nanosystem's dilution buffer. 10 mL of the dilute mRNAs were loaded into separate Luer lock syringes and all bubbles were removed by gentle tapping. A NanoAssemblr Ignite NxGen Cartridge was loaded into the cartridge slot of the Ignite instrument (FIG. 8A, 801) and one mRNA syringe was attached to the aqueous inlet of the cartridge. 3.3 mL of Genvoy-ILM reagent was loaded into a separate Luer lock syringes and all bubbles were removed by gentle tapping. The Genvoy-ILM syringe was then attached to the organic inlet of the cartridge. LNPs were then generated and collected into a 15 mL conical tube. The process was repeated for the remaining two mRNAs and for a buffer only LNP control (empty). Immediately after LNPs were generated, the samples were loaded into 10K dialysis cartridges, submerged into 1×DPBS (Ca^2+ and Mg^2+-free) to reduce the ethanol concentration to <0.5%. After dialysis the LNPs were recovered from the dialysis cartridges and sterile filtered at 0.2 um. Size and polydispersity (FIG. 8A, 802) were measured using a Malvern Panalytical DLS by diluting 40 uL of LNPs into 360 uL of 1×DPBS. […] Encapsulation efficiency was measured using a RiboGreen assay following Precision Nanosystems recommended protocol using a BioTek Synergy H1 Plate Reader. The resultant encapsulation efficiencies are shown in Table 14, with an average of ˜85%.\n(§4) To prepare lipid nanoparticles (LNPs), the mRNA stocks were thawed on ice. Nucleic acid concentrations were validated by absorbance at 260 nm using a NanoDrop. The mRNAs were then diluted to a final concentration of 0.35 mg/mL mRNA in Precision Nanosystem's dilution buffer. 10 mL of the dilute mRNAs were loaded into separate Luer lock syringes and all bubbles were removed by gentle tapping. A NanoAssemblr Ignite NxGen Cartridge was loaded into the cartridge slot of the Ignite instrument and one mRNA syringe was attached to the aqueous inlet of the cartridge. 3.3 mL of Genvoy-ILM reagent was loaded into a separate Luer lock syringes and all bubbles were removed by gentle tapping. The Genvoy-LM syringe was then attached to the organic inlet of the cartridge. LNPs were then generated and collected into a 15 mL conical tube. The process was repeated for the remaining mRNAs and for a buffer only LNP control (empty). Immediately after LNPs were generated, the samples were loaded into 10K dialysis cartridges, submerged into Ix DPBS (Ca^2+ and Mg^2+-free) to reduce the ethanol concentration to <0.5%. After dialysis the LNPs were recovered from the dialysis cartridges and sterile filtered at 0.2 um. Size and polydispersity (FIG. 12 and FIG. 13) were measured using a Malvern Panalytical DLS by diluting 40 uL of LNPs into 360 uL of 1×DPBS. […] Encapsulation efficiency was measured using a RiboGreen assay following Precision Nanosystems recommended protocol using a BioTek Synergy H1 Plate Reader. The resultant encapsulation efficiencies are shown in Table 18, with an average of ˜60%.\n(§5) To prepare lipid nanoparticles (LNPs), the mRNA stocks are thawed on ice. Nucleic acid concentrations are validated by absorbance at 260 nm using a NanoDrop. The mRNAs are then diluted to a final concentration of 0.35 mg/mL mRNA in Precision Nanosystem's dilution buffer. 10 mL of the dilute mRNAs are loaded into separate Luer lock syringes and all bubbles are removed by gentle tapping. A NanoAssemblr Ignite NxGen Cartridge is loaded into the cartridge slot of the Ignite instrument and one mRNA syringe is attached to the aqueous inlet of the cartridge. 3.3 mL of Genvoy-ILM reagent is loaded into a separate Luer lock syringes and all bubbles are removed by gentle tapping. The Genvoy-ILM syringe is then attached to the organic inlet of the cartridge. […]"}, "[2]": {"test": "LNP encapsulation efficiency, RiboGreen assay", "type": "physicochemical", "details": "mRNA LNPs, Example 6", "protocol": "as §3, §4, §5"}, "total IgG": {"tested_on": "total IgG", "test": "Total sera IgG by radial immunodiffusion after IM or SQ vaccination with OVA mRNA LNPs", "type": "in vivo, dairy cows", "details": "for Serum IgG Concentration: one line per animal replicate", "protocol": "as §1, §2\nSera samples were thawed on ice and total IgG was quantified using Triple J Farms' Ig Radial Immunodiffusion (RID) kits (Cat No. 728411) following the manufacturers recommended protocol."}}, "note": "Several values for one entry are separate records, joined by “and”; a condition that tells them apart may be missing. Equal entries are not always repeated.", "data": [{"molecule": "ARK011: mRNA: SP + Ova + TM/C, membrane-anchored OVA; SEQ ID NO: 16673 (nucleic acid, listed as DNA) ATGTTCGTGTTCCTCGTGCTCCTGCCCCTCGTCTCCAGCCAGTGCGTGGGGTCCATAGGGGCTGCTTCTATGGAGTTCTGTTTTGATGTTTTCAAGGAACTGAAGGTTCACCATGCTAACGAGAACATCTTTTACTGTCCAATAGCCATCATGAGTGCGCTTGCTATGGTTTATTTGGGTGCAAAAGATTCTACTCGCACTCAGATTAATAAGGTCGTTAGATTCGACAAGCTTCCAGGGTTTGGAGACAGTATTGAGGCCCAATGTGGAACGTCAGTCAACGTCCATTCTTCTCTGCGGGACATTCTCAACCAAATAACGAAGCCAAACGACGTGTATTCCTTCTCACTCGCGTCACGGCTGTATGCTGAAGAAAGGTATCCTATCTTGCCAGAATATCTCCAGTGCGTCAAGGAGTTGTATCGAGGCGGACTGGAACCGATCAACTTTCAGACTGCAGCCGACCAGGCCCGCGAACTGATCAACAGCTGGGTCGAGTCTCAGACCAATGGGATCATACGCAATGTGTTGCAACCGAGTAGTGTCGACTCTCAGACGGCTATGGTCTTGGTGAACGCTATAGTCTTCAAAGGTCTGTGGGAGAAGACCTTCAAGGATGAAGACACACAAGCGATGCCATTCAGAGTCACCGAACAAGAAAGCAAACCCGTCCAAATGATGTACCAAATTGGGCTTTTTCGGGTGGCCTCTATGGCCTCTGAGAAAATGAAAATATTGGAACTGCCCTTCGCCAGCGGCACAATGAGTATGTTGGTCCTTCTTCCAGATGAAGTCTCAGGTCTCGAACAGCTTGAGTCTATCATTAACTTTGAGAAACTCACTGAATGGACTTCTTCCAATGTGATGGAAGAACGAAAAATCAAAGTCTACCTGCCCCGAATGAAGATGGAAGAGAAATATAATTTGACATCAGTTCTGATGGCCATGGGAATCACAGACGTGTTTTCATCCTCTGCGAATCTGTCTGGCATATCTTCCGCAGAATCTCTCAAGATCAGTCAAGCCGTCCACGCGGCCCATGCTGAGATAAATGAGGCGGGCAGAGAGGTGGTGGGGTCCGCCGAAGCTGGAGTCGACGCAGCTTCTGTCAGTGAAGAATTTAGGGCCGATCATCCTTTCCTGTTCTGCATAAAGCACATAGCTACGAACGCTGTGCTTTTCTTTGGCAGATGCGTTTCTCCACCCTGGTACATCTGGCTGGGCTTCATCGCAGGACTGATCGCCATCGTCATGGTCACCATAATGCTCTGTTGCATGACCTCCTGCTGTAGCTGCCTGAAAGGCTGTTGCAGCTGCGGGAGCTGCTGCAAATTCGACGAAGACGATAGCGAACCTGTGCTCAAAGGGGTGAAGTTGCATTACACATAGTGA", "values": [{"measurement": "OVA-specific IgG, Absorbance (OD450)", "setting": "ovalbumin (OVA); IM injection, Day 0, dairy cows", "result": "0.327 OD450 and 0.591 OD450 and 1.937 OD450"}, {"measurement": "OVA-specific IgG, Absorbance (OD450)", "setting": "ovalbumin (OVA); IM injection, Day 14, dairy cows", "result": "0.64 OD450 and 0.616 OD450 and 1.817 OD450"}, {"measurement": "OVA-specific IgG, Absorbance (OD450)", "setting": "ovalbumin (OVA); IM injection, Day 21, dairy cows", "result": "0.757 OD450 and 0.513 OD450 and 2.024 OD450"}, {"measurement": "OVA-specific IgG, Absorbance (OD450)", "setting": "ovalbumin (OVA); IM injection, Day 28, dairy cows", "result": "0.626 OD450 and 0.603 OD450 and 1.663 OD450"}, {"measurement": "OVA-specific IgG, Absorbance (OD450)", "setting": "ovalbumin (OVA); SQ injection, Day 0, dairy cows", "result": "1.004 OD450 and 0.952 OD450 and 0.756 OD450"}, {"measurement": "OVA-specific IgG, Absorbance (OD450)", "setting": "ovalbumin (OVA); SQ injection, Day 14, dairy cows", "result": "1.16 OD450 and 0.955 OD450 and 1.085 OD450"}, {"measurement": "OVA-specific IgG, Absorbance (OD450)", "setting": "ovalbumin (OVA); SQ injection, Day 21, dairy cows", "result": "1.036 OD450 and 0.7 OD450 and 1.063 OD450"}, {"measurement": "OVA-specific IgG, Absorbance (OD450)", "setting": "ovalbumin (OVA); SQ injection, Day 28, dairy cows", "result": "0.916 OD450 and 0.68 OD450 and 0.704 OD450"}, {"measurement": "PDI", "setting": "[1]", "result": 0.1665}, {"measurement": "Z-avg.", "setting": "[1]", "result": 97.79, "unit": "nm·days"}, {"measurement": "Encapsulation efficiency", "setting": "[2]", "result": 83, "unit": "%"}, {"measurement": "Serum IgG Concentration", "setting": "total IgG; IM injection, Day 0, dairy cows, dose 348-468 ug", "result": "5,261 mg/dL and 5,203 mg/dL and 6,150 mg/dL"}, {"measurement": "Serum IgG Concentration", "setting": "total IgG; IM injection, Day 14, dairy cows, dose 348-468 ug", "result": "4,902 mg/dL and 5,664 mg/dL and 6,716 mg/dL"}, {"measurement": "Serum IgG Concentration", "setting": "total IgG; IM injection, Day 28, dairy cows, dose 348-468 ug", "result": "3,702 mg/dL and 4,145 mg/dL and 3,794 mg/dL"}, {"measurement": "Serum IgG Concentration", "setting": "total IgG; SQ injection, Day 0, dairy cows, dose 353-468 ug", "result": "4,956 mg/dL and 5,599 mg/dL and 4,964 mg/dL"}, {"measurement": "Serum IgG Concentration", "setting": "total IgG; SQ injection, Day 14, dairy cows, dose 353-468 ug", "result": "4,815 mg/dL and 4,777 mg/dL and 6,139 mg/dL"}, {"measurement": "Serum IgG Concentration", "setting": "total IgG; SQ injection, Day 21, dairy cows, dose 353-468 ug", "result": "5,722 mg/dL and 4,034 mg/dL and 7,379 mg/dL"}, {"measurement": "Serum IgG Concentration", "setting": "total IgG; SQ injection, Day 28, dairy cows, dose 353-468 ug", "result": "4,877 mg/dL and 4,344 mg/dL and 3,730 mg/dL"}, {"measurement": "total sera IgG immune response, treated groups normalized against the empty groups", "setting": "total IgG; dairy cows, 3 animals per construct, 28-day test period, FIG. 9", "result": "robust and prolonged immune response across all 3 animals"}]}]}
